Values joined by “and” are separate entries in the source; they are usually repeats but may differ in a detail not shown here. Equal values may be shown once. Read-outs that look alike come from different tables or passages of the source.
B1: CY30: CD123-binding aptamer, SEQ ID NO: 5 (nucleic acid)
chain: TGCGTGTGTACTGTGTCTGGTCCCGTAGCTACTAGCGAACTCCCTGCCTCTTAGGGATTTGGGCGG
modifications: listed as DNA, chemistry not fully specified
B2: Oligo-Protein G conjugates: docking oligo conjugated via sulfo-SMCC linker to 6xHis-tagged recombinant Protein G (conjugate)
chain: TYKLILNGKTLKGETTTEAVDAATAEKVFKQYANDNGVDGEWTYDDATKTFTVTEKPEVIDASELTPAVTTYKLVINGKTLKGETTTEAVDAATAEKVFKQYANDNGVDGEWTYDDATKTFTVTEKPEVIDASELTPAVTTYKLVINGKTLKGETTTKAVDAETAEKAFKQYANDNGVDGVWTYDDATKTFTVTE
B3: 3x3v2-Conjugate: Oligo-Protein G conjugates immobilized on 3x3v2 nets (conjugate)
chain: B2 chain
B4: #1: CD117-binding aptamer, SEQ ID NO: 3 (nucleic acid)
chain: GAGGCATACCAGCTTATTCAAGGGGCCGGGGCAAGGGGGGGGTACCGTGGTAGGACATAGTAAGTGCAATCTGCGAA
modifications: listed as DNA, chemistry not fully specified
B5: ABWT050904: CD117-binding aptamer, SEQ ID NO: 2 (nucleic acid)
chain: ATCCAGAGTGACGCAGCACGAGCCTTGTGTCGTTCGGAGTGCTGGTCCACGACTACTATTGGACACGGTGGCTTAGT
modifications: listed as DNA, chemistry not fully specified
B6: ZW25: CD123-binding aptamer, SEQ ID NO: 4 (nucleic acid)
chain: TGCGTGTGTAGTGTGTCTGGGCTACATCGATGAGCTGCCTAGGGTCCCTCTTAGGGATTTGGGCGGG
modifications: listed as DNA, chemistry not fully specified
B7: ABWT050902 (ssDNA)
DNA: ATCCAGAGTGACGCAGCACCGCCCATGTCGAATAGGTGCCACGTAGGGACTTGGACACGGTGGCTTAGT
B8: ABWT050902: CD117-binding aptamer, SEQ ID NO: 1; FAM-labeled or daunorubicin-loaded in tests (nucleic acid)
chain: B7 DNA
modifications: FAM label or daunorubicin loading in tests, chemistry not fully specified

What was measured:
KASUMI-1 cells = experiment: MTT cell killing assay; type: cell-based, Human; conditions: for ΔFold over Free (3x3v1): IC50 on 3x3v1 net versus free aptamer; for ΔFold over Free (TRD1): IC50 on TRD1 versus free aptamer
Description: (§1) Daunorubicin-loaded aptamers were then diluted across various concentrations: 4 μM, 2 μM, 0.2 μM, and 0.02 μM. Untreated cells were used as a negative killing control. 10% DMSO was used as a positive killing control. 40 μM daunorubicin was also used as a positive killing control but one that matched the current National Comprehensive Cancer Network (NCCN) guidelines for AML daunorubicin chemotherapy dosing. Cells were incubated with their respective treatments for 24 hours before they were washed with cell medium. After 48 hours, the viability of all cells were assessed using MTT assays. All conditions were performed in triplicate for standard error analysis. MM1S cells were used as negative control in the assays having aptamers at 4 μM and 2 μM, respectively.
Daunorubicin-loaded aptamers were prepared as described in Example 3. The killing activity of daunorubicin-loaded aptamers alone and daunorubicin-loaded aptamers on various networks of polynucleotides, i.e., 3x3v1 nets and TRD1 tiles on KASUMI-1 cells (an AML cell line) were assessed using the procedures as described in Example 3. Additional negative killing controls were added to control for any inherent nonspecific killing effects by the networks of polynucleotides or aptamers: “3x3v1 net (Empty)” is 3x3v1 net without aptamers (therefore, no daunorubicin), “TRD1 (Empty)” is TRD1 without aptamers (therefore, no daunorubicin), “Scramble Aptamer 1”, “Scramble Aptamer 2”, and “Scramble Aptamer 3” were three oligos with lengths and A:T:C:G ratios similar to the tested aptamers but whose nucleotide sequences were randomized but also loaded with daunorubicin. 0.4 μM Daunorubicin were intercalated into aptamers across all conditions.
KASUMI-1 cells were cultured and incubated with all five aptamers (each loaded with daunorubicin) across six concentrations: 10 nM, 1 nM, […] and 100 fM. 10% DMSO, 40 μM daunorubicin, 4 μM daunorubicin, and 0.4 μM daunorubicin were used as positive killing controls. 3x3v1 net (Empty), TRD1 (Empty), Scramble Aptamer 1, Scramble Aptamer 2, and Scramble Aptamer 3 were negative killing controls. Incubation and washing procedures were as described in Experiment 3. After 48 hours, the samples were measured for viability via MTT assay. Data points were plotted and unpaired student's t—tests were performed to determine significance. For IC50 calculations, the concentrations were transformed to the logarithmic equivalent followed by normalization of the relative cell viability on a scale of 0-100. The normalized viability was subjected to nonlinear regression against the logarithmically converted inhibitor concentrations in the three parameters variable slope mode to determine the IC50. […]
ABWT050902 aptamers with D1 dock sites were loaded with daunorubicin as described previously. Aptamers were then immobilized on PTR45 and PTR86 (please refer to FIG. 17B and FIG. 17C). PTR45 was loaded with 20 ABWT050902 D1 aptamers, whereas PTR86 were loaded with 40. KASUMI-1 cells were grown, incubated with analytes, and measured via MTT cell killing assays as described previously.

MM1S cells = experiment: MTT cell killing assay; type: cell-based, Human; conditions: Example 3: 24 hours treatment, MTT after 48 hours; daunorubicin 40 μM; daunorubicin-loaded aptamers 4 μM and 2 μM
Description: as §1
Daunorubicin-loaded aptamers were prepared as described in Example 3. The killing activity of daunorubicin-loaded aptamers alone and daunorubicin-loaded aptamers on various networks of polynucleotides, i.e., 3x3v1 nets and TRD1 tiles on KASUMI-1 cells (an AML cell line) were assessed using the procedures as described in Example 3. […]

mouse IgG = experiment: SPR binding assay of Protein G activity, Biacore CM5 chip; conditions: mouse IgG immobilized on CM5 chip, equivalent conjugate amount
Description: We used a sulfo-SMCC linker to conjugate an oligo (complementary to 3x3v1 docking sites) bearing a 5′ amine to the N terminal cysteine sulfhydryl R group on 6xHis-tagged recombinant Protein G (the oligo also bore a 3′ biotin for later purification). This was performed at room temperature in 1x phosphate buffered saline (PBS), pH 7.4. Oligo functionalization with sulfo-SMCC was performed first (as is typical), followed by two Zeba column (7 kDa molecular weight cutoff) cleanups to remove the excess sulfo-SMCC. Functionalized oligos were then placed in molar excess to Cys-Protein G. Purification proceeded via usage of monomeric avidin resin (to remove any unconjugated Cys-Protein G) followed by Ni^2+-NTA resin (to remove any unconjugated oligos). Oligo-Protein G conjugates were then docked to 3x3v1 (27 docking sites) and 3x3v2 (9 docking sites) nets and assayed for activity on SPR binding assays.

CD117 (c-KIT) = CD117 (c-KIT) (UniProt P10721 P10721:26-524); experiment: SPR; aptamer alone, CD117 immobilized on CM5 chip; conditions: tags: immobilized on Biacore CM5 chip; label: 5' FAM (flow cytometry)
Description: Next, surface plasmon resonance (SPR) assays were performed to assess the ability of networks of polynucleotides to improve the binding affinity of an aptamer. Aptamer ABWT050902 (a CD 117 binder) was folded as previously described. Aptamers alone, and aptamers on a TRD1 (as illustrated in FIG. 2) were prepared at varying concentrations and flowed over a CM5 sensor chip on a Biacore SPR immobilized with CD117. The inter-binder distances of the 96 uniquely addressable docking loci for CD 117 binders was 5 nm. Concentrations were normalized to total aptamer amount.

CD117 = CD117 (Homo sapiens, UniProt P10721); experiment: SPR binding assay, Biacore CM5 chip; conditions: CD117 immobilized on CM5 chip, concentrations normalized to total aptamer amount
[1] = Kinetic fluorescent assay of daunorubicin release over time; conditions: free daunorubicin in supernatant buffer
Excerpt: Despite both “ABWT050902 Alone, With Daunorubicin” and “ABWT050902 on TRD1” conditions beginning the assay at the same time, the former began the assay with higher fluorescence of 400.0+ RFUs compared to the latter. This is because more free daunorubicin was in the supernatant buffer of “ABWT050902 Alone, with Daunorubicin” compared to “ABWT050902 on TRD1”.

[2] = KASUMI-1, MTT after 48 hours, daunorubicin or daunorubicin-loaded aptamer alone, read-out: IC50 (pM) Free
[3] = KASUMI-1, daunorubicin-loaded aptamer immobilized on 3x3v1 net, read-out: IC50 (pM) 3x3v1
[4] = KASUMI-1, daunorubicin-loaded aptamer immobilized on 3x3v1 net, read-out: IC90 (pM) 3x3v1
[5] = KASUMI-1, daunorubicin-loaded aptamer immobilized on TRD1, read-out: IC50 (pM) TRD1
[6] = KASUMI-1, daunorubicin-loaded aptamer immobilized on TRD1, read-out: IC90 (pM) TRD1

Chain of CD117 (P10721 26-976): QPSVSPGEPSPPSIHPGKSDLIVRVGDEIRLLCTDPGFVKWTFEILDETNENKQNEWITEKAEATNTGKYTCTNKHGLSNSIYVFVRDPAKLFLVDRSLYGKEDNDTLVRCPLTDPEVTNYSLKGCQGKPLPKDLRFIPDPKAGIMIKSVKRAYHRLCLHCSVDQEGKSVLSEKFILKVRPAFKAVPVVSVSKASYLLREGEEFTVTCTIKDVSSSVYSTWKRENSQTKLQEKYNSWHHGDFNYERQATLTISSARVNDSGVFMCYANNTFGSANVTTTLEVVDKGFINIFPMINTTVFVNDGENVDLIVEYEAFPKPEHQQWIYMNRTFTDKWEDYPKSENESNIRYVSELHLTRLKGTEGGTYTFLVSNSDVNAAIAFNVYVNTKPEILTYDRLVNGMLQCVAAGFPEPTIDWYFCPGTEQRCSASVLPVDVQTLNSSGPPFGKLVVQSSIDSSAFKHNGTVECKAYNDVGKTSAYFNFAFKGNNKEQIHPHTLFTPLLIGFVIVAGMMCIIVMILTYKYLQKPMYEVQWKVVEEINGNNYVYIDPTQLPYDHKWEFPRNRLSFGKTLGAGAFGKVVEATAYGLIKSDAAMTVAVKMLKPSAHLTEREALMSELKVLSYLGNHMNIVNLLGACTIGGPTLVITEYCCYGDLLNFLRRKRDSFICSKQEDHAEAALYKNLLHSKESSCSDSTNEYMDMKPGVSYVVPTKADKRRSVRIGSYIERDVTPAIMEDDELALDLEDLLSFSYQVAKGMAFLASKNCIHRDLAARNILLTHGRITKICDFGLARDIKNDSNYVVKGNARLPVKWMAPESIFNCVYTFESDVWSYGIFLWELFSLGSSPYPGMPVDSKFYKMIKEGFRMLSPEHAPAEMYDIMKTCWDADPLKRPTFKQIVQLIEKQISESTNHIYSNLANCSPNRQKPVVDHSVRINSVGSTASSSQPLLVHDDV
Chain of CD117 (c-KIT) (P10721 26-524, one chain of several): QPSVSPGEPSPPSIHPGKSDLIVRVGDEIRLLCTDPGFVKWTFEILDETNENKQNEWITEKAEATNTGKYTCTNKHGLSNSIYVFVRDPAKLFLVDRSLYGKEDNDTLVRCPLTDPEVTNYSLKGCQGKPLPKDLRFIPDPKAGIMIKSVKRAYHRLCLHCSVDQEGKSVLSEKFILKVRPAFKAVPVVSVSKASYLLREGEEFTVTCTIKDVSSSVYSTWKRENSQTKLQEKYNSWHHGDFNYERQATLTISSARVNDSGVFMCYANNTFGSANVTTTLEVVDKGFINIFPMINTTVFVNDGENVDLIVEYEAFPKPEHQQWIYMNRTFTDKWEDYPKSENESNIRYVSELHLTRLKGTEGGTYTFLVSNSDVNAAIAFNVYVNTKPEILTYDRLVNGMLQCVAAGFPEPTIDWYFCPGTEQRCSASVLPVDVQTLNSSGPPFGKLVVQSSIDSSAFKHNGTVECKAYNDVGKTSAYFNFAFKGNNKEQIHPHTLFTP

| Molecule | ΔFold over Free (3x3v1) (KASUMI-1 cells) [x] | ΔFold over Free (TRD1) (KASUMI-1 cells) [x] | IC50 (KASUMI-1 cells; [2]) [pM] | IC50 (KASUMI-1 cells; [3]) [pM] | IC90 (KASUMI-1 cells; [4]) [pM] | IC50 (KASUMI-1 cells; [5]) [pM] | IC90 (KASUMI-1 cells; [6]) [pM] | other results |
| --- | --- | --- | --- | --- | --- | --- | --- | --- |
| COc1cccc2c1C(=O)c1c(O)c3c(c(O)c1C2=O)C[C@@](O)(C(C)=O)C[C@@H]3O[C@H]1C[C@H](N)[C@H](O)[C@H](C)O1 [Daunorubicin, daunorubicin, reference compound] |  |  |  |  |  |  |  | killing of KASUMI-1 cells (KASUMI-1 cells; Example 3: 24 hours treatment, MTT after 48 hours, daunorubicin 40 μM, daunorubicin-loaded aptamers 4-0.02 μM): approximately 20%; IC50 (KASUMI-1 cells; Homo sapiens, Kasumi 1, 48 h, read-out: IC50 (pM) Free): 58400 pM; killing of MM1S cells (MM1S cells): approximately 50% |
| B1 | 5.5 | 38.1 | 5070 | 931 | 8700 | 133 | 93600 |  |
| B2 |  |  |  |  |  |  |  | relative response, binding to mouse IgG (mouse IgG): ~145 RUs |
| B3 |  |  |  |  |  |  |  | relative response, binding to mouse IgG (mouse IgG): ~170 RUs |
| B4 | 3.6 | 5.6 | 531 | 147 | 208000 | 95 | 165000 | IC90 (KASUMI-1 cells; KASUMI-1, daunorubicin-loaded aptamer alone, read-out: IC90 (pM) Free): 108000 pM |
| B5 | 4.2 |  | 976 | 233 | 17600 |  |  |  |
| B6 | 8.0 | 34.7 | 3540 | 445 | 128000 | 102 | 7830 |  |
| B7 |  |  |  |  |  |  |  | Kd (CD117 (c-KIT)): 1220 nM |
| B8 | 2.4 |  | 529 | 218 | 61800 |  |  | Kd (CD117): ~1220 nM and 1220 nM; fluorescence at the beginning of the daunorubicin release assay [1]: ≥ 400.0 RFUs |

Reference: patent publication US20250388907A1, “MULTISPECIFIC POLYNUCLEOTIDE NANOSTRUCTURES FOR CANCER DETECTION AND THERAPY” (Atom Bioworks, Inc., priority 2021, published 2025)
